Source: the nanobody polyreactivity screen of Harvey et al. (2022)

Test: yeast display, Sf9 membrane polyspecificity reagent, FACS + sequencing; frameworks hold sequencing errors
Outline: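 In a synthetic yeast display library (Saccharomyces cerevisiae BJ5465), nanobody expression was induced with galactose for 36–48 hours. FACS gates were set low and high (top ~1%) using anti-HA fluorescence for expression and streptavidin fluorescence for binding of the Sf9 membrane reagent. Each polyreactivity label is drawn from the gate of origin.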

Sequence	polyreactivity (PSR sort gate)
QVQLVESGGGLVQAGGSLRLSCAASGSTVWKYVMGWYRQAPGKERELVAAISNSGVNTYYADSVKGRFTISRDNAKNTVYLQMNSLKTEDTAVYYCAADRGGYEYWGQGTQVTVSS	high polyreactivity
QVQLVESGGGLVQAGGSLRLSCAASGIIFQWYAMGWYSQAPGKERELVAAINSDGSTYYADSVKGRFTISRDNAKNTVYLQMNSLIPEDTAVYYCAADFIPLIGFDYWGQGTQVTVSS	low polyreactivity
QVQLVESGGGVVQAGGSLRLSCAASGFIFWVYALGWYRQAPGKASELVAAITGRGGRTYYVDAVKGRFTISRDNAKNTVYLQMNSLKPEDTAVYYCNTVPYPAYLARMVYWGQGTQVTVTS	high polyreactivity
QFQLVESGGGLVQAGGSLRLSCAASGSTFIYYTMGWYRQAPGKERELVAAIPSSGGSTYYADSVKGRFTISRDNAKNTVYFQMNSLKPEDTAVYYCAADGTYIKFAKLYRRYDYWGQGTQVTVSS	low polyreactivity
QVQLVESGGGLVQAGGSLRLSCAASGSTFEWNAMGWYRQAPGKERELVAAISWRTTRTYYADSVKGRFTISRDNAKNTVYLQMNSLKPEDTAVYYCAVVTSPYYGGYEYWGQGTQVTVSS	high polyreactivity
QVQLVESGGGLVQAGGSLRLSCAASGSTYAYAMGWYRQAPGKEREFVAAITRSGGSTYYADSVKGRFTISRDNAKITVYLQMNSLKPEDTAVYYCRGNSTSWRGSQMDYWGQGTQVTVSS	high polyreactivity
QVQLVESGGGLVQAGGSLRLSCAASGFIFPFYAMGWYRQAPGKERELVAVIRTSSDRTYYADSVKGRFTISRDNAKNTVYLQMNSLKPEDTAVYYCAAETYRLFDYLGQGTQVTVSS	low polyreactivity
QVQLVESGGGLVQAGGSLRLSCPASGIIFDRNAMGWYRQAPVKERELVAAITGSGGSTYYADSVKGRFTISRDNAKNTVYLQMNSLKPEDTAVYYCAATYLSRWTLYDYWGQGTQVTVSS	high polyreactivity
QVQLVESGGGLVQAGGSLRLSCAASGFTFRGYAMGWYRQAPGKERELVAVISSGGSTNYADSVKGRFTISRDNAKNTVYLQMNSLKPEDTAVYYCNAGYWFRYYGGDYYLGGLNYYWGQGTQVTVSS	low polyreactivity
QVQLVESGGGLVQAGGSLRLSCAASGSTFGWNTMGWYRQAPGKERELVAAISWYGDRTYYADSVKGRFTISRDNAKNTVYLQMNSLKPEDTAVYYCARQRYYGYYYWGQGTQVTVSS	high polyreactivity
QVQLVESGGGLVQAGGSLRLSCAASGRTFTRYAMGWYRQAPGKERELVAAISRRGGRTFYADSVKGRFTISRDNAKNTVYLQMNSLKPEDTAVYYCAADYKSSPPLPEYDYWGQGTQVTVSS	high polyreactivity
QVQLVESGGGLVQAGGSLRLSSAASGSTIGYYAMRWYRQAPGKERELVAAISWSGGSTYYADSVKGRFTISRDNAKNTVYLQMNSLKPEDTAVYYCAADTYPDYYLVEYYYWGQGTQVTVSS	low polyreactivity
QVQLVESGGGLVQAGGSLRLSCAASGSTFAVYAMGWYRQAPGKERELVATITGSGGSTYYADSVKGRFTISRDNAKNTVYLEMNSLKPEDTAVYYCAAEVVAWSLYEDFKTYDYWGQGTQVTVSS	low polyreactivity
QVQLVESGGGLVQAGGSLRVSCAASGRIFASYAMGWYRQAPGKERELVAAISLSGGSTYYADSVKGRFTISRDNAKNTVFLQMNSLKPEDTAVYYCAAKNYRRYRDYYWGQGTQVTVSS	high polyreactivity
QVQLVESGGGLVQAGGSLRLSCAASGLIFPIYTMGWYRQAPGKERELVAAISSRGGSTYYADSVKGRFTISRDNAKNTVYLQMNSLKPEDTAVYYFGSYDYSGQGTQVTVSS	high polyreactivity
QFQLVESGRGLVQAGGSLRLSCAASGLIFRYYAMGWYRQAPGKERELVAAIRTGGSTYYADSVKGRFTISRDNAKNTVYLQMNSLKPEDTAVYYCAALLLSWYRTSYDFDYWGQGTQVTVSS	high polyreactivity
QDQLEESGGGLVQAGGSLRLICAAYGSTFVLYDMGWYRQEPGKERELVADISYSGGSTYYEDSVKGRFTISRDNAKYTVYLLMKRLIPEDTAFYYCIAGVLVLLYAYLPSELEYWGQGTQVTVSS	low polyreactivity
QVQLVESGGGLVQAGGSLRLSCAPSGIIFFAYAMGWYRQAPGKERELVAAISSSGGRTYYADSVKGRFTISRDNAKHTVYLQMNSLKPEETPVYYCNARWHGSFDYWGQGTQVTVSS	low polyreactivity
QVQLVESGGGLVQAGGSLRISCAASGFTFAYYAMGRYRQAPGKERELVASITSGGSTYYADSVKGRFTISRDNAKNNVYLQMNSLKPEDTAVYYCAADSSIDYDWGQGTQVTVSS	high polyreactivity
QVQLVESGGGLVQAGGSLRLSCAASGITFWDYAMGRYRQAPGKERELVAGISTRGGSTYYADSVKGRFTISRDNAKNTVYLQMNSLKPEDTAVYYCAADAQTSFGLGWGSDYDYWGQGTQVTVSS	low polyreactivity
HVQLVQSGGGLVQAGGSSRLSCAASGSIFFFNTMGWYSQAPGKERELVAVITSGGSTYYADSVTGRFRISRDNAKNTVYVQMNSLKPEDPAVYYCAARYLPYRRIKYDYWGQGTQVTVSS	low polyreactivity
QVQLVESGGGLVQAGGSLRLSCAASGFTLRVNAMGWYRHPPGKERELVAAISDSGGDTYYADSVKGRFTISRDNAKNTVYLQMNSLKPEDTAVYYCAADDGSENDYWGQGTQVTVSS	low polyreactivity

Sequence	polyreactivity (PSR sort gate)
QVQLVESGGGLVQAGGSLRLSCAASGRTFSLYAMGWYRQAPGKERELVARIRSSTRTTYADSVKGRFTISRDNAKNTVYLQMNSLKPEDTAVYYCAADSGYRYYTKSVGYDYWGQGTQVTVSS	high polyreactivity
QVQLVESGGGLVQAGGSLRLSCAASGRTFRWYAMGWYRQAPGKERELVADISSVGSTDYADSVKGRFTISRDNAKNTVYLQMNSLKPEDTAVYDCAADFSPRRYHNRSFGYWGHGTQVTVSS	low polyreactivity
QVQLVESGGGIVQAGGSLRLSCAASGITFPANAMGWYRQAPGKERELVADISESDGSTYYADSVKGRFTISRDNAKNTVYLQMNSLKPEDTAVYYCAADGTSGTRSDYWGQGTQVTVSS	low polyreactivity
QVQHVESGGGLVQAGGSLRLSCAASVRTLYYYAMGWSRQAPGKERELVAAISGGGRTYYADSVKGRFTISRDNAKNTVYLQMIILKPEDTAVYYCAARYRKSGLDNYWGQGTQVTVSS	high polyreactivity
QVQLVESGGGLVQAGGSLRLSCAASGRTFGYYAMGWYRQAPGKERELVAAINWRGDSTYYADSVKGRFTISRDNAKNTVYLQMNSLKPEDTAVYYCAALVRGYDRSIRMDYWGQGTQVTVSS	high polyreactivity
QVQLVESGGGLVQAGGSLRLSCAASGRIFDIYGMGWYRQAPGKERELLAAITWRGGSTYYADSVKGRFTISRDNAKNTVYLQMKSLNPEDTAVYYCNARKRGARFILGYDYWGQGTQVTVSS	low polyreactivity
QVQLVESGGGLVQAGGSLRLSCAASGRIFWPNTMGWYRQAPGKERELVATITSTGTRTYYADSVKGRFTISRDNAKNTVYLQMNSLNPEDTAVYYCNARGYYRPDRPTRRNRFDYWGQGTQVTVSS	high polyreactivity
QVLIVESGGGLVQAGGSLRLSCADSGLTLAHYTMGWYRQSPGKERELVAAITFSGGRTYYADSVKGRFTISRDNAKNTVYLQMNSLKPEDTAVYYCNDEYQWGGYGYDYWGQGTQVTVSS	low polyreactivity
QVQLVESGGGLVQAGGSLRLSCAASGSTFGRNAMGWYRQAPGKEREFVAAISSRGGRTSYADSVKGRFTISRDNAKNTVYLQMNSLKPEDTAVYYCATLGYFSASRTDYDYWGQGTQVTVSS	low polyreactivity
QVQLVESGGGLVQAGGSLRLSCAASGRIFGVNAMGWYRQAPGKERELVAVISSGGSTYYADSVKGRFTISRDNAKKTVYLQMNSLKPEDTEVYYCDRKSYNFIPGNREYDYWGQGTQVTVSS	low polyreactivity
QVQLVESGGGLVQAGGSLRLSCAASGFTFPDYAMGWYRQAPGKERELVAAISSDGSTYYADSVKGRFTISRDNAKNTVYLQMNSLKPEDTAVYYCAAYVVWLYGYDYWGQGTKVTVSS	low polyreactivity
QVQLVESGGGLVQAGGSLRLSCSASGYIYQYNSMGWYRQAPGKERELVAANSRGGRTNYADSVKGRFTISRDNAKNTVYLQMNSLKPEDTEVYYCAAKRPWGYYPWSTQTGDYWGQGTQVTVSS	high polyreactivity
QVQLVESGGGLDQAGGSLRLSCAASASIFWGYDMGWYRQAPGKEREFVARISYSGGSTSYAESVKGRFTISRDNAKNTVYLQMNSLKPEDTAVYYCAADEGVFWWTYPYDSWGQGTQVTVSS	low polyreactivity
QVQLVESGGGLVQAGGSLRLSCAASGSIFFRNAMGWYRQAPGKERELVAAITSGGSTYYADSVKGRFTISRDNAKNTVYLQMNSLKPEDTAVYYCNREFWRSSSYRYYYWGQGTQVTVSS	high polyreactivity
QVQLQESGGGLVQVGGSQRLSCAASGNIFYNYAMVWYRNAQGKEREFDATIKNGTSINYADSVKGRFTISRDNAKNTVYLQMNSLTPEDTAVYYCAADLSWTDNLFYWGQGTQVTVSS	low polyreactivity
QVQLVESGGGLVQAGGSLRLSCAASGSIFGYAMGWYRQAPGKARELVAAISFSGVSTYYADSVKGRFTITRDNAKNTVYLQMNSLKPEDTAGYYCNAYSDGDEDYWGQGTQVNVSS	low polyreactivity
QVQLVESGGGLVQARGSLRLSCAASGFNISNYAMGWYREAPGKESELVAAIRRSGGSTYYADSVKGRFTISRDNAKNTVYLQMNSRKPEDTAVYYCAAYPKRGSRYDYWGLGTQVTVSS	high polyreactivity
QVQLVESGGGLVQAGGSLRLSCAASGSIFALYTMGWYRQAPWKERELVAGIRTGRSTNYADSVKGRFTISRDNAKNTVYLQMNSLKPEDTAVYYDYWGQGTQVTVSS	low polyreactivity
QVQLVESGGGLVQAGGSLRLSCAASGSTFPPNAMGWYRQAPGKERELVAVISYSDGSTYYADSVKGRFTISRDNAKNTVYLQMNSLKPEDTAVYYCAAYSGYGGVSMYYWGQGTQVTGSS	low polyreactivity
QVQLVESGGGLVQAGGSLRLSCAASGSTFSRYAMGWYRQAPGKERELVAAISSSGGSTYYADSVKGRFTISRDNAKNTVYLQMNSLKPEDTAVYYCAARIWRTRRYDYWGQGTQVTVSS	high polyreactivity
QVQLVESGGGLVQAGGSLRLSCAASGFTFTWYAMGWYRQAPGKERELVAAISSGGGRTYYADSVKGRFTISRDNAKNTVYLQMNSLKPEDTAVYYCNKVSSFGYYYWGQGTQVTVSS	high polyreactivity
